Data set [1] relates to HeLa Kyoto. Description: solubility in G1/S (NP-40 vs SDS abundance) (log2 ratio); higher = more soluble. The note with it: cell cycle stage: G1/S.
The test system of data set [2] is HeLa Kyoto. As to the kind of experiment: melting temperature (median over replicates), in situ; higher = more thermally stable.
The test system of data set [3] is HeLa Kyoto. As to the kind of experiment: solubility change mitosis vs G1/S (difference of NP-40 vs SDS log2 ratios) (log2 ratio difference); higher = more soluble in mitosis.
The subject of data set [4] is HeLa Kyoto. Description: thermal stability score vs G1/S (z-score of summed log2 fold changes over temperatures); higher = more thermally stable than in G1/S.
Setting [5] is: cell cycle stage: early G1 (4.5 h after nocodazole release).

We go through five sequences from the supplement of paper PMC5998384.
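Wherever melting temperature (median over replicates), in situ is given: HeLa Kyoto cells synchronized by double thymidine or nocodazole block, proteins quantified by TMT10plex mass spectrometry, three independent biological replicates.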
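Wherever solubility change mitosis vs G1/S (difference of NP-40 vs SDS log2 ratios) is given: synchronized HeLa Kyoto cells (double thymidine block for G1/S, nocodazole release for mitosis), protein amounts in NP-40 versus SDS lysates quantified by mass spectrometry, three biological replicates.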
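Wherever solubility in G1/S (NP-40 vs SDS abundance) is given: HeLa Kyoto cells arrested at G1/S by double thymidine block, proteins quantified by TMT10plex mass spectrometry in mild NP-40 versus SDS extracts, three biological replicates.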
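Wherever thermal stability score vs G1/S (z-score of summed log2 fold changes over temperatures) is given: synchronized HeLa Kyoto cells, proteins quantified by TMT10plex mass spectrometry, three biological replicates, mitosis taken 0.5 h after nocodazole release, G1/S directly after double thymidine block.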

With “MAAPGAPAEYGYIRTVLGQQILGQLDSSSLALPSEAKLKLAGSSGRGGQTVKSLRIQEQVQQTLARKGRSSVGNGNLHRTSSVPEYVYNLHLVENDFVGGRSPVPKTYDMLKAGTTATYEGRWGRGTAQYSSQKSVEERSLRHPLRRLEISPDSSPERAHYTHSDYQYSQRSQAGHTLHHQESRRAALLVPPRYARSEIVGVSRAGTTSRQRHFDTYHRQYQHGSVSDTVFDSIPANPALLTYPRPGTSRSMGNLLEKENYLTAGLTVGQVRPLVPLQPVTQNRASRSSWHQSSFHSTRTLREAGPSVAVDSSGRRAHLTVGQAAAGGSGNLLTERSTFTDSQLGNADMEMTLERAVSMLEADHMLPSRISAAATFIQHECFQKSEARKRVNQLRGILKLLQLLKVQNEDVQRAVCGALRNLVFEDNDNKLEVAELNGVPRLLQVLKQTRDLETKKQITDHTVNLRSRNGWPGAVAHACNPSTLGGQGGRITRSGVRDQPDQHGLLWNLSSNDKLKNLMITEALLTLTENIIIPFSGWPEGDYPKANGLLDFDIFYNVTGCLRNMSSAGADGRKAMRRCDGLIDSLVHYVRGTIADYQPDDKATENCVCILHNLSYQLEAELPEKYSQNIYIQNRNIQTDNNKSIGCFGSRSRKVKEQYQDVPMPEEKSNPKGVEWLWHSIVIRMYLSLIAKSVRNYTQEASLGALQNLTAGSGPMPTSVAQTVVQKESGLQHTRKMLHVGDPSVKKTAISLLRNLSRNLSLQNEIAKETLPDLVSIIPDTVPSTDLLIETTASACYTLNNIIQNSYQNARDLLNTGGIQKIMAISAGDAYASNKASKAASVLLYSLWAHTELHHAYKKAQFKKTDFVNSRTAKAYHSLKD [PKP2]”, the “solubility in G1/S (log2)” value in data set [1] was -0.953. In addition, the melting temperature in data set [2] (cell cycle stage: G1/S) was 50.7 °C; in data set [2] (cell cycle stage: mitosis) it was 49.9 °C. The “solubility change mitosis (log2)” value in data set [3] turned out to be 0.0433. Besides, the results for the thermal stability score in data set [4] (setting [5]) and in data set [4] (cell cycle stage: mitosis) were -1.03 and -0.99, respectively.

For the sequence “MAAPGLRLGAGRLFEMPAVLERLSRYNSTSQAFAEVLRLPKQQLRKLLYPLQEVERFLAPYGRQDLHLRIFDPSPEDIARADNIFTATERNRIDYVSSAVRIDHAPDLPRPEVCFIGRSNVGKSSLIKALFSLAPEVEVRVSKKPGHTKKMNFFKVGKHFTVVDMPGYGFRAPEDFVDMVETYLKERRNLKRTFLLVDSVVGIQKTDNIAIEMCEEFALPYVIVLTKIDKSSKGHLLKQVLQIQKFVNMKTQGCFPQLFPVSAVTFSGIHLLRCFIASVTGSLD [GTPBP8]”, in data set [1], the “solubility in G1/S (log2)” value came out at 0.0451. Further, the melting temperature in data set [2] (cell cycle stage: G1/S) came out at 50.8 °C; in data set [2] (cell cycle stage: mitosis), 52.8 °C. Further, the “solubility change mitosis (log2)” value in data set [3] was -0.0931. The thermal stability score in data set [4] (setting [5]) is -0.696; in data set [4] (cell cycle stage: mitosis), 0.105.

Turning to “MAAPGPALCLFDVDGTLTAPRQKITKEMDDFLQKLRQKIKIGVVGGSDFEKVQEQLGNDVVEKYDYVFPENGLVAYKDGKLLCRQNIQSHLGEALIQDLINYCLSYIAKIKLPKKRGTFIEFRNGMLNVSPIGRSCSQEERIEFYELDKKENIRQKFVADLRKEFAGKGLTFSIGGQISFDVFPDGWDKRYCLRHVENDGYKTIYFFGDKTMPGGNDHEIFTDPRTMGYSVTAPEDTRRICELLFS [PMM2]”, in data set [1], the “solubility in G1/S (log2)” value is 0.526. Further, the values for the melting temperature in data set [2] (cell cycle stage: G1/S) and in data set [2] (cell cycle stage: mitosis) were 53 °C and 53.3 °C, respectively. The “solubility change mitosis (log2)” value in data set [3] was -0.0066. In addition, the results for the thermal stability score in data set [4] (setting [5]) and in data set [4] (cell cycle stage: mitosis) were 12.5 and 3.25, respectively.

In the case of “MAAPGSCALWSYCGRGWSRAMRGCQLLGLRSSWPGDLLSARLLSQEKRAAETHFGFETVSEEEKGGKVYQVFESVAKKYDVMNDMMSLGIHRVWKDLLLWKMHPLPGTQLLDVAGGTGDIAFRFLNYVQSQHQRKQKRQLRAQQNLSWEEIAKEYQNEEDSLGGSRVVVCDINKEMLKVGKQKALAQGYRAGLAWVLGDAEELPFDDDKFDIYTIAFGIRNVTHIDQALQEAHRVLKPGGRFLCLEFSQVNNPLISRLYDLYSFQVIPVLGEVIAGDWKSYQYLVESIRRFPSQEEFKDMIEDAGFHKVTYESLTSGIVAIHSGFKL [COQ5]”, the “solubility in G1/S (log2)” value in data set [1] is -0.0892. The results for the melting temperature in data set [2] (cell cycle stage: G1/S) and in data set [2] (cell cycle stage: mitosis) were 54.4 °C and 56.3 °C, respectively. Also, the “solubility change mitosis (log2)” value in data set [3] amounted to 0.0212. Also, the values for the thermal stability score in data set [4] (setting [5]) and in data set [4] (cell cycle stage: mitosis) were -1.07 and -0.586, respectively.

For “MAAPILRSFSWGRWSGTLNLSVLLPLGLRKAHSGAQGLLAAQKARGLFKDFFPETGTKIELPELFDRGTASFPQTIYCGFDPTADSLHVGHLLALLGLFHLQRAGHNVIALVGGATARLGDPSGRTKEREALETERVRANARALRLGLEALAANHQQLFTDGRSWGSFTVLDNSAWYQKQHLVDFLAAVGGHFRMGTLLSRQSVQLRLKSPEGMSLAEFFYQVLQAYDFYYLFQRYGCRVQLGGSDQLGNIMSGYEFINKLTGEDVFGITVPLITSTTGAKLGKSAGNAVWLNRDKTSPFELYQFFVRQPDDSVERYLKLFTFLPLPEIDHIMQLHVKEPERRGPQKRLAAEVTKLVHGREGLDSAKRCTQALYHSSIDALEVMSDQELKELFKEAPFSEFFLDPGTSVLDTCRKANAIPDGPRGYRMITEGGVSINHQQVTNPESVLIVGQHILKNGLSLLKIGKRNFYIIKWLQL [YARS2]”, in data set [1], the “solubility in G1/S (log2)” value is 0.027. For the same sequence, the melting temperature in data set [2] (cell cycle stage: G1/S) was 48.8 °C; in data set [2] (cell cycle stage: mitosis), 48.2 °C. Also, in data set [3], the “solubility change mitosis (log2)” value was -0.0352. The thermal stability score in data set [4] (setting [5]) was 0.871; in data set [4] (cell cycle stage: mitosis), 4.36.
